Laboratory results published in US20220389097A1 (Genentech, published 2022).
Residue numbers refer to the chain shown, from its start. Numbers in names are those of the source. Values belong to the binder of their own block, whether it stands above or below them. Where no end group is shown, it is not given here.

How the values were obtained:
human TREM2 on cells [1] = biological target: T1, human TREM2 on cells (human, UniProt Q9NZC2 19-230); experiment: cell-based or functional assay
T1 sequence: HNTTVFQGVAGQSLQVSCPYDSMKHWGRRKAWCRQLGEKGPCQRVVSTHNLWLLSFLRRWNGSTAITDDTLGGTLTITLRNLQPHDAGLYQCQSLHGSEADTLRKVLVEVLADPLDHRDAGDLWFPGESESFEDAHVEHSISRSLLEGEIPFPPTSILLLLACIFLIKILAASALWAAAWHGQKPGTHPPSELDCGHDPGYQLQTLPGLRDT

human TREM2 on cells [2] = biological target: T1, human TREM2 on cells; experiment: cell-based or functional assay; remark: listed apart in the source
[3] = biological target: T2, TREM2 peptide residues 148 to 165 (human); experiment: crystal structure of the complex
T2 construct: Peptide of the crystal structures
T2 peptide: ESFEDAHVEHSISRSLLE

[4] = biological target: T3, soluble monomeric human TREM2 (human, UniProt Q9NZC2 19-174, limits assumed); experiment: SPR (Biacore 8K) at 37 C, mutant IgG captured on anti-human Fab chip, soluble monomeric TREM2 as analyte, off-rate screen
T3 construct: Not the same as shed sTREM2; also called soluble monomeric TREM2
T3 sequence: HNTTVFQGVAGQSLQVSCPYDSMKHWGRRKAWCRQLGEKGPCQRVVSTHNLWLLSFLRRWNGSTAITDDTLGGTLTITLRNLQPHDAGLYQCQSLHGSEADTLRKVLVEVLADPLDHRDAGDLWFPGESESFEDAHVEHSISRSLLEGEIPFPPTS

[5] = biological target: T4, hTREM2 stalk peptide 146-169 (human, biotinylated); experiment: ELISA: biotinylated peptide captured on streptavidin plate, antibody detected with anti-mouse IgG-HRP
T4 peptide: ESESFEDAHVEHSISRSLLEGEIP
Description: (§1) The antibody epitopes were mapped to the stalk region of human TREM2 using enzyme-linked immunosorbent assay (ELISA). Overlapping biotinylated peptides were captured in ELISA plates coated with streptavidin. The binding of antibodies to peptides was detected with an anti-mouse IgG conjugated to horseradish peroxidase.

[6] = biological target: T5, hTREM2 stalk peptide residues 129-175 (human, biotinylated); experiment: as above
T5 construct: also called human TREM2 stalk peptide
T5 peptide: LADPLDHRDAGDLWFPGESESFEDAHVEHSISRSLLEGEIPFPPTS
Description: as §1

129-148 = biological target: T6, 129-148 (biotinylated (site not given)); experiment: as above
T6 construct: member of the group m13
T6 peptide: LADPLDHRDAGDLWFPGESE
Description: as §1

159-175 = biological target: T7, 159-175 (also: biotinylated (site not given here)); experiment: as above
T7 construct: member of the group m13
T7 peptide: ISRSLLEGEIPFPPTSI
Description: as §1

[7] = biological target: T8, hTREM2 stalk peptide 151-165 (human, also: biotinylated (position not given here)); experiment: as above
T8 peptide: EDAHVEHSISRSLLE
Description: as §1

[8] = biological target: T9, hTREM2 stalk peptide 146-161 (human, also: biotinylated (site not given here)); experiment: as above
T9 peptide: ESESFEDAHVEHSISR
Description: as §1

152-161 = biological target: T10, 152-161 (also: biotinylated (site not given here)); experiment: as above
T10 construct: member of the group m13
T10 peptide: DAHVEHSISR
Description: as §1

155-169 = biological target: T11, 155-169 (also: biotinylated (site not given here)); experiment: as above
T11 construct: member of the group m13
T11 peptide: VEHSISRSLLEGEIP
Description: as §1

[9] = biological target: T12, hTREM2 stalk peptide 149-168 (human, biotinylated); experiment: as above
T12 peptide: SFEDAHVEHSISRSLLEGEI
Description: as §1

139-158 = biological target: T13, 139-158 (biotinylated (site not given)); experiment: as above
T13 construct: member of the group m13
T13 peptide: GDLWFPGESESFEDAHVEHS
Description: as §1

154-164 = biological target: T14, 154-164 (also: biotinylated (site not given here)); experiment: as above
T14 construct: member of the group m13; also called hTREM2 stalk 154-164
T14 peptide: HVEHSISRSLL
Description: as §1

[10] = biological target: T15, cynomolgus TREM2 stalk antigen (cynomolgus monkey, UniProt A0A2K5UY34 159-204, not fully specified); experiment: SPR (Biacore T200), 37 C; TREM2 stalk antigen on anti-human IgG1 Fc chip, antibody in solution
T15 construct: domain: stalk
T15 chain: T5 peptide with F15V
Experimental: (§2) Forty-six rat anti-human antibodies were tested for binding affinity to the hTREM2 and cynomolgus TREM2 stalk. Antibody binding affinities for hTREM2 stalk and cynomolgus TREM2 stalk were measured by surface plasmon resonance (SPR) using a Biacore™ T200 apparatus. TREM2 stalk antigens (human or cynomolgus) were immobilized on anti-human IgG1 Fc Biacore™ chips and anti-TREM2 antibody clones were bound to immobilized TREM2 at 37° C. Binding affinities, KD (nM) were measured and recorded.
(§3) Several antibodies were selected for binding measurements against cynomolgus TREM2 stalk. […] These four antibodies are referred to collectively below as the “3.10C2 group” of antibodies.

hTREM2 stalk antigen = biological target: T16, hTREM2 stalk antigen (human, UniProt Q9NZC2 129-174); experiment: as above
T16 construct: also called human TREM2 stalk
T16 chain: T5 peptide
Experimental: as §2, §3

EC50, Jurkat NFAT luciferase reporter cells (human TREM2 on cells [1]): 0.0178 µg/mL
IC50, TREM2 shedding inhibition in Jurkat-NFAT reporter cells (sTREM2 ELISA) (human TREM2 on cells [1]): 0.123 µg/mL
EC50, average X04 plaque intensity, human iPSC-derived microglia plaque assay (FIG. 24C) (human TREM2 on cells [2]): 500 nM
EC50, total Abeta plaque intensity, human iPSC-derived microglia plaque assay (FIG. 24B) (human TREM2 on cells [2]): 120 nM
binding result [3]: binds
B1: hPara.09.v2 Q100P (antibody, V domains shown)
VH: EVQLVESGGGLVQPGGSLKLSCATSGFPFSNVWLHWVRQASGKGPEWVAHIKAKSDNYATYYAESVKGRFTISRDDSKNTVYLQMNSLKTEDTAVYYCTDILEYWGQGTLVTVSS
VL: DVVMTQSPLSLPVTPGEPASISCRSSRSLLTSKGITSLYWYLQKPGQSPQLLIYRMSNLASGIPDRFSGSGSGTDFTLKISRVEAEDVGVYYCAQFLVYPYTFGPGTKVEIK
notes: Human IgG1 N297G in the cell assays; also called huPara.09.v2 Q100P; hPara.09 Q100P
EC50, survival of iPSC-derived microglia (FIG. 23E) (human TREM2 on cells [2]): 0.61 nM

binding result [3]: binds
B2: h3.10C2.v1 Q100P (antibody, V domains shown)
VH: EVQLVESGGGLVQPGGSLKLSCATSGFPFSNVWMHWVRQASGKGLEWIAHIKAKSDNYATYYAESVKGRFTISRDDSKTTIYLQMNSLKTEDTAVYYCTGLDYWGQGTTVTVSS
VL: B1 VL
notes: also called hu3.10C2.v1 Q100P

fold improvement (lower dissociation rate kd) relative to wild-type 3.10C2 [4]: 1.4 fold
B3: T93H (antibody, V domains shown)
VH: EVQLVETGGSLVQPGKSLKLTCATSGFPFSNVWMHWVRQSPEKQLEWIAHIKAKSDNYATYYAESVKGRFTISRDDSKTSIYLQMNSLKEDDTAIYYCHGLDYWGQGVMVTVSS
VL: DTVLTQAPLSLSVTPGESASISCRSSKSLLGVRDITSLYWYLQKPGKSPQLLIYRMSNLASGVPDRFSGSGSETDFTLKISEVETEDVGVYYCAQFLRYPYTFGPGTKLELK

fold improvement (lower dissociation rate kd) relative to wild-type 3.10C2 [4]: 2 fold
B4: T93E (antibody, V domains shown)
VH: B3 VH with H99E
VL: B3 VL

A620 absorbance (ELISA) [5]: 1.88 A620
A620 absorbance (ELISA) [6]: 2.13 A620
A620 absorbance (ELISA) (129-148): 0.19 A620
A620 absorbance (ELISA) (159-175): 0.08 A620
A620 absorbance (ELISA) [7]: 2.32 A620
A620 absorbance (ELISA) [8]: 2.52 A620
A620 absorbance (ELISA) (152-161): 0.14 A620
A620 absorbance (ELISA) (155-169): 0.13 A620
A620 absorbance (ELISA) [9]: 1.28 A620
A620 absorbance (ELISA) (139-158): 0.43 A620
A620 absorbance (ELISA) (154-164): 0.26 A620
Kd [10]: 0.57 nM
Kd (hTREM2 stalk antigen): 0.61 nM
B5: 3.50G1 (rat anti-human TREM2 antibody) (antibody, IgG2a, V domains shown)
VH: B3 VH with E90D, H99T
VL: B3 VL with L11V, S26N, V32I, Y41F, K112Q
notes: Whole IgG

A620 absorbance (ELISA) [5]: 1.65 A620
A620 absorbance (ELISA) [6]: 1.91 A620
A620 absorbance (ELISA) (129-148): 0.19 A620
A620 absorbance (ELISA) (159-175): 0.07 A620
A620 absorbance (ELISA) [7]: 2.52 A620
A620 absorbance (ELISA) [8]: 2.95 A620
A620 absorbance (ELISA) (152-161): 0.12 A620
A620 absorbance (ELISA) (155-169): 0.13 A620
A620 absorbance (ELISA) [9]: 2.16 A620
A620 absorbance (ELISA) (139-158): 0.37 A620
A620 absorbance (ELISA) (154-164): 0.39 A620
Kd [10]: 0.25 nM
Kd (hTREM2 stalk antigen): 0.24 nM
B6: 3.10C2 (rat anti-human TREM2 antibody) (antibody, V domains shown)
VH: B3 VH with H99T
VL: B3 VL
notes: Whole IgG with rat variable regions; also called clone 3.10C2
